Assay results reported in patent publication US20040082509A1 (XIGEN S A, published 2004).

Molecular target: recombinant JNK1α1 (UniProt P45983-2 1-384)
Assay: cell-based or functional assay

recombinant JNK1α1, sequence (P45983 other isoform, or with tags, fused parts or gaps limits assumed): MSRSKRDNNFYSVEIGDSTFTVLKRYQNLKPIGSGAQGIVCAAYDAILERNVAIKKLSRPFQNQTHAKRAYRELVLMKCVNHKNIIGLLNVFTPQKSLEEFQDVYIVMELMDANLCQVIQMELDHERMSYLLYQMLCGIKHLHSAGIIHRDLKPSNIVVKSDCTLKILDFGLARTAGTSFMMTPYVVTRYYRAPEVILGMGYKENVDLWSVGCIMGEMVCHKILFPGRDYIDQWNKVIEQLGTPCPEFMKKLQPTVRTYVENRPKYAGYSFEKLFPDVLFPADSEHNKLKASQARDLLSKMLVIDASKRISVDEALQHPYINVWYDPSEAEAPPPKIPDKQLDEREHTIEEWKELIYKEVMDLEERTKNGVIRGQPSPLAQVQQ

RPKRPTTLNLFPQVPRSQDT [L-JBD20 peptide (20 amino acid minimal JNK-inhibitory sequence of JIP-IB1)]
~1000 nM: IC50, phosphorylation of the JNK target ATF2 | IC50, phosphorylation of the JNK target IRS-1 | IC50, phosphorylation of the JNK target MADD | IC50, phosphorylation of the JNK target bcl-xl
